From patent US20120121597A1 (ROCKEFELLER UNIVERSITY, published 2012) come the findings set out here.

Assay [1] has as its target T1, human soluble CD4 (sCD4) (human, UniProt P01730 26-396).
T1 construct: also called human CD4
In words: competition ELISA on plate-coated sCD4; competitor: fixed concentration of HRP-labeled iMab.

The target in assay [2] is CD4 receptor on the target cells of the virus neutralization assay (human, UniProt P01730 26-458). The assay is described as follows: cell-based or functional assay.
For assay [3], the target named is T1, human soluble CD4 (sCD4). The assay is described as follows: SPR, Biacore-3000.

B1: m36 (other)
VH: QVQLVQSGGGLVQPGGSLRLSCAASAFDFSDYEMSWVRQAPGKGLEWIGEINDSGNTIYNPSLKSRVTISRDNSKNTLYLQMNTLRAEDTAIYYCAIYGGNSGGEYWGQGTLVTVSS
notes: also called m36 polypeptide
Turning to B1, the binding result with human soluble CD4 (sCD4) [1] is reported as “no binding”.

B2: iMabm36 fusion antibody (bispecific antibody, human IgG1, kappa)
heavy: QVQLQQSGPEVVKPGASVKMSCKASGYTFTSYVIHWVRQKPGQGLDWIGYINPYNDGTDYDEKFKGKATLTSDTSTSTAYMELSSLRSEDTAVYYCAREKDNYATGAWFAYWGQGTLVTVSSASTKGPSVFPLAPSSKSTSGGTAALGCLVKDYFPEPVTVSWNSGALTSGVHTFPAVLQSSGLYSLSSVVTVPSSSLGTQTYICNVNHKPSNTKVDKKVEPKSCDKTHTCPPCPAPEFEGGPSVFLFPPKPKDTLMISRTPEVTCVVVDVSHEDPEVKFNWYVDGVEVHNAKTKPREEQYNSTYRVVSVLTVLHQDWLNGKEYKCKVSNKALPASIEKTISKAKGQPREPQVYTLPPSRDELTKNQVSLTCLVKGFYPSDIAVEWESNGQPENNYKTTPPVLDSDGSFFLYSKLTVDKSRWQQGNVFSCSVLHEALHSHYTQKSLSLSPGKLEGGGGSGGGGSGGGGSGQVQLVQSGGGLVQPGGSLRLSCAASAFDFSDYEMSWVRQAPGKGLEWIGEINDSGNTIYNPSLKSRVTISRDNSKNTLYLQMNTLRAEDTAIYYCAIYGGNSGGEYWGQGTLVTVSS
light: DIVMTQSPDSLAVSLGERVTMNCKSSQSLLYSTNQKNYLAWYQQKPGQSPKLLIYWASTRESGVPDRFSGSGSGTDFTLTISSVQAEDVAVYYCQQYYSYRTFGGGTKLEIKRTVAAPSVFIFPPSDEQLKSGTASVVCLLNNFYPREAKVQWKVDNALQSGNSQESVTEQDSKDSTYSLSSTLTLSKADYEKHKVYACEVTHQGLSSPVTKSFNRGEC
On to B2, for which the “IC50 (read off the curve), virus G23 [Virus (G23]” value in assay [2] is about 0.2 nM.

B3: iMab mutant E95A (CDR-H3 ARAKDNYATGAWFA) (antibody, V domains shown)
VH: QVQLQQSGPEVVKPGASVKMSCKASGYTFTSYVIHWVRQKPGQGLDWIGYINPYNDGTDYDEKFKGKATLTSDTSTSTAYMELSSLRSEDTAVYYCARAKDNYATGAWFAYWGQGTLVTVSS
VL: DIVMTQSPDSLAVSLGERVTMNCKSSQSLLYSTNQKNYLAWYQQKPGQSPKLLIYWASTRESGVPDRFSGSGSGTDFTLTISSVQAEDVAVYYCQQYYSYRTFGGGTKLEIK
For orientation: Kd means a measure of binding affinity in units of concentration. Read a high Kd as a looser complex. By koff is commonly meant the rate constant with which the complex falls apart. A higher koff goes with fast dissociation. One may read the kon as the second-order rate constant of association. A higher kon goes with faster complex formation. For B3, in the assay with human soluble CD4 (sCD4) [3], the Kd was found to be 7.7 nM, the koff was 0.0048 s⁻¹ and the on-rate (kon) was 620000 M⁻¹ s⁻¹.
